Where no end group is shown, it is not given here.
Tests used:
[1] = molecular target: T1, His-tagged human PCNA (human, UniProt P12004 1-261); test: pull-down; GST-tagged ERCC6L2 753-819 immobilised on GST-beads, incubated with purified His-tagged PCNA 1 h at 4°C in 50 mM Tris-HCl pH 8, 150 mM NaCl, 1 mM DTT, 0.2% Triton X-; Western blot against PCNA; details: both partners purified
T1 construct: PCNA, human; cloned into the NdeI and XhoI sites of pET28a for the protein with N-terminal His-tag; The ITC methods say only 'PCNA'; the paragraph on purification of His-tagged PCNA describes the preparation for ITC; also called recombinant PCNA; source: E. coli Rosetta (pET28a), purified (Ni-NTA, Q-sepharose, Superdex S-200); not shown: His-tag, N-terminal, kept

[2] = system: U2OS cells; test: Nuclear patterns resembling replication foci of YFP-ERCC6L2 truncations; type: cell-based, human; details: YFP-tagged fragments
From the text: Figure 4 ERCC6L2 contains an atypical PCNA-binding motif (A) ERCC6L2 colocalizes with PCNA at CENP-C-negative foci. U2OS cells transfected with YFP-ERCC6L2 were stained for CENP-C and PCNA after pre-extraction of soluble proteins. ERCC6L2-and PCNA-positive, but CENP-C negative foci (red arrows) are marked in zoomed images. (B) ERCC6L2 colocalizes with RPA at CENP-C-negative foci. U2OS cells transfected with YFP-ERCC6L2 were stained for CENP-C and RPA. ERCC6L2- and RPA-positive, but CENP-C-negative foci (red arrows) are marked in zoomed images. (C) Colocalization of the C-terminal ERCC6L2^701−1561 fragment with endogenous PCNA. (D) PCNA pull-down with biotinylated peptides. Biotinylated PIP-box and APIM motif peptides were bound to streptavidin beads and incubated with recombinant PCNA. Interactions were assayed by western blotting with PCNA antibody. Wild-type ZRANB3 PIP-box peptide (ZRANB3 PIP) was used as a positive control. Mutant ZRANB3 PIP-box peptide (Q519A, F525A, and F526A, ZRANB3 PIP^∗) served as a negative control. ERCC6L2 aPIP and ERCC6L2 aPIP^∗ denote atypical ERCC6L2 peptides (residues 790–811) containing the WT and the Q798A mutant sequences, respectively. (E) Expression patterns of the indicated C-terminal YFP-ERCC6L2 constructs. […] (F) PCNA pull-down with GST-tagged peptides. Wild-type and Q798A mutant versions of the GST-tagged ERCC6L2 fragments (residues 753–819) were immobilized on GST beads (shown on the left) and incubated with recombinant PCNA. Interactions were assessed by western blotting against PCNA (shown on the right). (G) Schematic representation of different ERCC6L2 fragments tested for formation of PCNA-like foci. A region at the N terminus of fragment 701–1,098 is zoomed below to show sequence alignment of different ERCC6L2 proteins. The conserved atypical PIP-box is marked in a green frame. Targeted mutation sites are indicated by red arrows. (H) Colocalization of YFP-ERCC6L2 wild type, ATPase dead K165 ERCC6L2, and aPIP^∗ mutant (Q798A, C804A, F806A) with CENP-A. N(cells) > 1,400. (I) Colocalization of YFP-ERCC6L2 wild type, ATPase dead K165 ERCC6L2, and aPIP^∗ mutant (Q798A, C804A, F806A) with CENP-B. N(cells) > 1,000. (J) Front and side views of the PCNA ring (white surface and ribbons) with the ERCC6L2 aPIP-box peptide (green sticks). (K) Overview of the hydrogen-bond interaction network between the ERCC6L2 aPIP-box peptide (green) and PCNA (white). Hydrogen bonds are shown as yellow dotted lines. (L) Hydrophobic pocket on PCNA surface (white) with conserved residues that form “hydrophobic plug” (Leu801, Cys804, and Phe806; shown as green sticks) in the ERCC6L2 aPIP-box peptide. (M) Magnified view of the boxed region in (I). (N) Magnified view of the hydrogen-bond interaction network between the ERCC6L2 aPIP-box peptide (green) and PCNA (white, labels in italics). Hydrogen bonds are shown as yellow dotted lines. Intramolecular hydrogen bonds between ERCC6L2 aPIP-box residues are also shown. (H) and (I) Box and whisker plots. […] (A), (B), (C), (E) Scale bar, 5 μm.
U2OS cells (ATCC) were grown in 24 well plates. Where indicated, cells were transfected with the YFP constructs […] with siRNAs. […] Samples were analyzed by confocal microscopy using Olympus FV1200 or Zeiss 880 Airyscan microscopes, or using EVOS M7000 Imaging System.

[3] = molecular target: T1, His-tagged human PCNA; test: ITC; 25°C, PBS with 1 mM β-mercaptoethanol; 15 μM PCNA in the chamber, 215 μM ERCC6L2 aPIP peptide injected in 20 steps of 2 μL; single set of independent binding sites model; details: both partners purified
[4] = system: endogenous PCNA; test: Colocalization of YFP-ERCC6L2 constructs with endogenous PCNA; type: cell-based, human; details: YFP-tagged, U2OS cells
From the text: Figure 4 ERCC6L2 contains an atypical PCNA-binding motif (A) ERCC6L2 colocalizes with PCNA at CENP-C-negative foci. U2OS cells transfected with YFP-ERCC6L2 were stained for CENP-C and PCNA after pre-extraction of soluble proteins. ERCC6L2-and PCNA-positive, but CENP-C negative foci (red arrows) are marked in zoomed images. (B) ERCC6L2 colocalizes with RPA at CENP-C-negative foci. U2OS cells transfected with YFP-ERCC6L2 were stained for CENP-C and RPA. ERCC6L2- and RPA-positive, but CENP-C-negative foci (red arrows) are marked in zoomed images. (C) Colocalization of the C-terminal ERCC6L2^701−1561 fragment with endogenous PCNA. (D) PCNA pull-down with biotinylated peptides. Biotinylated PIP-box and APIM motif peptides were bound to streptavidin beads and incubated with recombinant PCNA. Interactions were assayed by western blotting with PCNA antibody. Wild-type ZRANB3 PIP-box peptide (ZRANB3 PIP) was used as a positive control. Mutant ZRANB3 PIP-box peptide (Q519A, F525A, and F526A, ZRANB3 PIP^∗) served as a negative control. […] Interactions were assessed by western blotting against PCNA (shown on the right). […]
U2OS cells (ATCC) were grown in 24 well plates. […] Samples were analyzed by confocal microscopy using Olympus FV1200 or Zeiss 880 Airyscan microscopes, or using EVOS M7000 Imaging System. […]

[5] = system: CENP-A; test: Colocalization of YFP-ERCC6L2 constructs with CENP-A; type: cell-based, human; details: U2OS cells; N(cells) > 1,400 for mutants
[6] = molecular target: T1, His-tagged human PCNA; test: pull-down; biotinylated peptides immobilised on magnetic streptavidin beads, incubated with purified His-tagged PCNA 1 h at 4°C in 50 mM Tris-HCl pH 8, 150 mM NaCl, 1 mM DTT, 0.2% Triton X-; anti-PCNA Western blot; details: both partners purified

T1 sequence (P12004 whole entry): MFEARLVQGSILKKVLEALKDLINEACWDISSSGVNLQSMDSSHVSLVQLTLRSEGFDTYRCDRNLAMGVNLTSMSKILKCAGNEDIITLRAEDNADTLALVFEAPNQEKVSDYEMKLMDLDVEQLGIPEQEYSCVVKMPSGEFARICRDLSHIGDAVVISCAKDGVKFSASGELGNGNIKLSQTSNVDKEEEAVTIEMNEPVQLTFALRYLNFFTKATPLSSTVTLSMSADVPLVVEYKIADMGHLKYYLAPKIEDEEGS

Molecule | nuclear pattern resembling replication foci [2] | also measured
GST-tagged ERCC6L2^753−819 fragment (domain or fragment, human, UniProt Q5T890 753-819, looked up) AAEPLAKEACDLCSDFSDEEPVGATGIKTAKNKAPDSSKASSSPGQLTLLQCGFSKLLETKCKAVED | – | binding result [1]: binds
728–1,098: C-terminal YFP-ERCC6L2 fragment (protein, UniProt Q5T890 728-1098, looked up, fragment, YFP tag, C-terminal YFP-ERCC6L2 fragment) PRQPDCQECRGTEQAAEPLAKEACDLCSDFSDEEPVGATGIKTAKNKAPDSSKASSSPGQLTLLQCGFSKLLETKCKAVEDSDGNTASDDESSDEQPTCLSTEAKDAGCEKNQDSLGTSKHQKLDNILNPKEKHIFYKSEKILEQNISSKSDEKKIKNTDKHCILQNVTESEDSDVICPTQYTTERFPDNSIRFKPPLEGSEDSETEHTVKTRNNDNSRNTDDKRNGIISKKLSPENTTLKSILKRKGTSDISDESDDIEISSKSRVRKRASSLRFKRIKETKKELHNSPKTMNKTNQVYAANEDHNSQFIDDYSSSDESLSVSHFSFSKQSHRPRTIRDRTSFSSKLPSHNKKNSTFIPRKPMKCSNEKV | show patterns reminiscent of replication foci | –
820–1,098: C-terminal YFP-ERCC6L2 fragment (protein, UniProt Q5T890 820-1098, looked up, fragment, YFP tag, C-terminal YFP-ERCC6L2 fragment) SDEQPTCLSTEAKDAGCEKNQDSLGTSKHQKLDNILNPKEKHIFYKSEKILEQNISSKSDEKKIKNTDKHCILQNVTESEDSDVICPTQYTTERFPDNSIRFKPPLEGSEDSETEHTVKTRNNDNSRNTDDKRNGIISKKLSPENTTLKSILKRKGTSDISDESDDIEISSKSRVRKRASSLRFKRIKETKKELHNSPKTMNKTNQVYAANEDHNSQFIDDYSSSDESLSVSHFSFSKQSHRPRTIRDRTSFSSKLPSHNKKNSTFIPRKPMKCSNEKV | do not | –
SPGQLTLLQCGFSKLLETKCKA (peptide, UniProt Q5T890 795-816, looked up, ERCC6L2, human, residues 795-816, atypical PIP-box; Used for ITC and for co-crystallisation with PCNA; also called ERCC6L2 aPIP peptide; aPIP(ERCC6L2); source: synthetic peptide (Genscript)) [ERCC6L2^795−816 aPIP peptide] | – | Kd [3]: ~6 µM
ERCC6L2^701−1247: C-terminal ERCC6L2 fragment (protein, UniProt Q5T890 701-1247, looked up, fragment, YFP tag, C-terminal ERCC6L2 fragment) REGQVEAGIMTATTWLKEGPPAHKLEMPRQPDCQECRGTEQAAEPLAKEACDLCSDFSDEEPVGATGIKTAKNKAPDSSKASSSPGQLTLLQCGFSKLLETKCKAVEDSDGNTASDDESSDEQPTCLSTEAKDAGCEKNQDSLGTSKHQKLDNILNPKEKHIFYKSEKILEQNISSKSDEKKIKNTDKHCILQNVTESEDSDVICPTQYTTERFPDNSIRFKPPLEGSEDSETEHTVKTRNNDNSRNTDDKRNGIISKKLSPENTTLKSILKRKGTSDISDESDDIEISSKSRVRKRASSLRFKRIKETKKELHNSPKTMNKTNQVYAANEDHNSQFIDDYSSSDESLSVSHFSFSKQSHRPRTIRDRTSFSSKLPSHNKKNSTFIPRKPMKCSNEKVVNQEQSYESMDKFLDGVQEVAYIHSNQNVIGSSKAENHMSRWAAHDVFELKQFSQLPANIAVCSSKTYKEKVDADTLPHTKKGQQPSEGSISLPLYISNPVNQKKKKVYHTNQTTFIIGETPKGIRRKQFEEMASYFNSSSVNEFAKHI | – | colocalization with endogenous PCNA [4]: efficiently colocalized with endogenous PCNA
797–1,098: C-terminal YFP-ERCC6L2 fragment (protein, UniProt Q5T890 797-1098, looked up, fragment, YFP tag, C-terminal YFP-ERCC6L2 fragment) KLLETKCKAVEDSDGNTASDDESSDEQPTCLSTEAKDAGCEKNQDSLGTSKHQKLDNILNPKEKHIFYKSEKILEQNISSKSDEKKIKNTDKHCILQNVTESEDSDVICPTQYTTERFPDNSIRFKPPLEGSEDSETEHTVKTRNNDNSRNTDDKRNGIISKKLSPENTTLKSILKRKGTSDISDESDDIEISSKSRVRKRASSLRFKRIKETKKELHNSPKTMNKTNQVYAANEDHNSQFIDDYSSSDESLSVSHFSFSKQSHRPRTIRDRTSFSSKLPSHNKKNSTFIPRKPMKCSNEKV | show patterns reminiscent of replication foci | –
701–1,098: C-terminal YFP-ERCC6L2 fragment (protein, UniProt Q5T890 701-1098, looked up, fragment, YFP tag, C-terminal YFP-ERCC6L2 fragment) REGQVEAGIMTATTWLKEGPPAHKLEMPRQPDCQECRGTEQAAEPLAKEACDLCSDFSDEEPVGATGIKTAKNKAPDSSKASSSPGQLTLLQCGFSKLLETKCKAVEDSDGNTASDDESSDEQPTCLSTEAKDAGCEKNQDSLGTSKHQKLDNILNPKEKHIFYKSEKILEQNISSKSDEKKIKNTDKHCILQNVTESEDSDVICPTQYTTERFPDNSIRFKPPLEGSEDSETEHTVKTRNNDNSRNTDDKRNGIISKKLSPENTTLKSILKRKGTSDISDESDDIEISSKSRVRKRASSLRFKRIKETKKELHNSPKTMNKTNQVYAANEDHNSQFIDDYSSSDESLSVSHFSFSKQSHRPRTIRDRTSFSSKLPSHNKKNSTFIPRKPMKCSNEKV | show patterns reminiscent of replication foci | –
YFP-ERCC6L2^1053−1247: YFP-tagged C-terminal ERCC6L2 fragment (protein, UniProt Q5T890 1053-1247, looked up, fragment, YFP tag, YFP-tagged C-terminal ERCC6L2 fragment) FSFSKQSHRPRTIRDRTSFSSKLPSHNKKNSTFIPRKPMKCSNEKVVNQEQSYESMDKFLDGVQEVAYIHSNQNVIGSSKAENHMSRWAAHDVFELKQFSQLPANIAVCSSKTYKEKVDADTLPHTKKGQQPSEGSISLPLYISNPVNQKKKKVYHTNQTTFIIGETPKGIRRKQFEEMASYFNSSSVNEFAKHI | – | colocalization with CENP-A [5]: formed foci marked by the CENP-A protein
880–1,098: C-terminal YFP-ERCC6L2 fragment (protein, UniProt Q5T890 880-1098, looked up, fragment, YFP tag, C-terminal YFP-ERCC6L2 fragment) EKKIKNTDKHCILQNVTESEDSDVICPTQYTTERFPDNSIRFKPPLEGSEDSETEHTVKTRNNDNSRNTDDKRNGIISKKLSPENTTLKSILKRKGTSDISDESDDIEISSKSRVRKRASSLRFKRIKETKKELHNSPKTMNKTNQVYAANEDHNSQFIDDYSSSDESLSVSHFSFSKQSHRPRTIRDRTSFSSKLPSHNKKNSTFIPRKPMKCSNEKV | do not | –
SKASSSPGQLTLLQCGFSKLLE (peptide, UniProt Q5T890 790-811, looked up, also: biotin, position not given here, ERCC6L2, human, residues 790-811, wild-type atypical PIP-box (consensus Q-[FL]-x-L-x-Q-C-G-[FL]); also called ERCC6L2 aPIP; biotinylated ERCC6L2^790−811 peptide; source: synthetic peptide (Genscript)) [Biotinylated aPIP ERCC6L2 peptide (residues 790–811)] | – | binding result [6]: binds
